The source of these data is patent US20120172295A1 (INDIANA UNIVERSITY RESEARCH AND TECHNOLOGY, published 2012).

Sequences and labels used below:
B1: MNGG30 PSSGAPPPS (SEQ ID NO: 522) (peptide)
peptide: HSQGTFTSDYSKYLDSRRAQDFVQWLMNGGPSSGAPPPS-NH2
B2: GLP-1-VKGG30 (SEQ ID NO: 527) (peptide)
peptide: HAEGTFTSDVSSYLEGQAAKEFIAWLVKGG-NH2
B3: E16K20-MDGG30 PSSGAPPPS (SEQ ID NO: 526) (peptide)
peptide: HSQGTFTSDYSKYLDERRAKDFVQWLMDGGPSSGAPPPS-NH2
B4: Peptide 87 (SEQ ID NO: 569) (peptide)
peptide: H[Aib]QGTFTSDK([Pro-Pro-Palmitoyl])SKYLD[Aib]RRAQDFVQWLMNT-NH2
B5: Peptide 82 (SEQ ID NO: 564) (peptide)
peptide: H[Aib]QGTFTSDK([Ala-Ala-Palmitoyl])SKYLD[Aib]RRAQDFVQWLMNT-NH2
B6: Peptide 79* (SEQ ID NO: 575) (peptide)
peptide: H[Aib]QGTFTSDK([Ala-Ala-Palmitoyl])SKYLD[Aib]RRAQDFVC(PEG 40 kDa)WLMNT-NH2
B7: Peptide 78* (SEQ ID NO: 571) (peptide)
peptide: H[Aib]QGTFTSDK([γGlu-γGlu-Myristoyl])SKYLD[Aib]RRAQDFVC(PEG 40 kDa)WLMNT-NH2
B8: Peptide 81* (SEQ ID NO: 573) (peptide)
peptide: H[Aib]QGTFTSDK([Ala-Ala-Myristoyl])SKYLD[Aib]RRAQDFVC(PEG 40 kDa)WLMNT-NH2
B9: Peptide 85 (SEQ ID NO: 567) (peptide)
peptide: H[Aib]QGTFTSDK([Ahx-Palmitoyl])SKYLD[Aib]RRAQDFVQWLMNT-NH2
B10: Peptide 77* (SEQ ID NO: 570) (peptide)
peptide: H[Aib]QGTFTSDK(Myristoyl)SKYLD[Aib]RRAQDFVC(PEG 40 kDa)WLMNT-NH2
B11: Peptide 26 (SEQ ID NO: 637) (peptide)
peptide: H[Aib]QGTFTSDYSKYLD[Aib]RRAQDFVQWLMNT-NH2
modifications: N-terminus assumed
SMILES: CSCC[C@H](NC(=O)[C@H](CC(C)C)NC(=O)[C@H](Cc1c[nH]c2ccccc12)NC(=O)[C@H](CCC(N)=O)NC(=O)[C@@H](NC(=O)[C@H](Cc1ccccc1)NC(=O)[C@H](CC(=O)O)NC(=O)[C@H](CCC(N)=O)NC(=O)[C@H](C)NC(=O)[C@H](CCCNC(=N)N)NC(=O)[C@H](CCCNC(=N)N)NC(=O)C(C)(C)NC(=O)[C@H](CC(=O)O)NC(=O)[C@H](CC(C)C)NC(=O)[C@H](Cc1ccc(O)cc1)NC(=O)[C@H](CCCCN)NC(=O)[C@H](CO)NC(=O)[C@H](Cc1ccc(O)cc1)NC(=O)[C@H](CC(=O)O)NC(=O)[C@H](CO)NC(=O)[C@@H](NC(=O)[C@H](Cc1ccccc1)NC(=O)[C@@H](NC(=O)CNC(=O)[C@H](CCC(N)=O)NC(=O)C(C)(C)NC(=O)[C@@H](N)Cc1c[nH]cn1)[C@@H](C)O)[C@@H](C)O)C(C)C)C(=O)N[C@@H](CC(N)=O)C(=O)N[C@H](C(N)=O)[C@@H](C)O
B12: Peptide 80* (SEQ ID NO: 576) (peptide)
peptide: H[Aib]QGTFTSDK([γGlu-γGlu-Palmitoyl])SKYLD[Aib]RRAQDFVC(PEG 40 kDa)WLMNT-NH2
B13: Peptide 83 (SEQ ID NO: 565) (peptide)
peptide: H[Aib]QGTFTSDK([γGlu-γGlu-Palmitoyl])SKYLD[Aib]RRAQDFVQWLMNT-NH2
modifications: N-terminus assumed
SMILES: CCCCCCCCCCCCCCCC(=O)N[C@@H](CCC(=O)N[C@@H](CCC(=O)NCCCC[C@H](NC(=O)[C@H](CC(=O)O)NC(=O)[C@H](CO)NC(=O)[C@@H](NC(=O)[C@H](Cc1ccccc1)NC(=O)[C@@H](NC(=O)CNC(=O)[C@H](CCC(N)=O)NC(=O)C(C)(C)NC(=O)[C@@H](N)Cc1c[nH]cn1)[C@@H](C)O)[C@@H](C)O)C(=O)N[C@@H](CO)C(=O)N[C@@H](CCCCN)C(=O)N[C@@H](Cc1ccc(O)cc1)C(=O)N[C@@H](CC(C)C)C(=O)N[C@@H](CC(=O)O)C(=O)NC(C)(C)C(=O)N[C@@H](CCCNC(=N)N)C(=O)N[C@@H](CCCNC(=N)N)C(=O)N[C@@H](C)C(=O)N[C@@H](CCC(N)=O)C(=O)N[C@@H](CC(=O)O)C(=O)N[C@@H](Cc1ccccc1)C(=O)N[C@H](C(=O)N[C@@H](CCC(N)=O)C(=O)N[C@@H](Cc1c[nH]c2ccccc12)C(=O)N[C@@H](CC(C)C)C(=O)N[C@@H](CCSC)C(=O)N[C@@H](CC(N)=O)C(=O)N[C@H](C(N)=O)[C@@H](C)O)C(C)C)C(=O)O)C(=O)O
B14: Peptide 86 (SEQ ID NO: 568) (peptide)
peptide: H[Aib]QGTFTSDK([Leu-Leu-Palmitoyl])SKYLD[Aib]RRAQDFVQWLMNT-NH2
B15: Peptide 84 (SEQ ID NO: 566) (peptide)
peptide: H[Aib]QGTFTSDK([βAla-βAla-Palmitoyl])SKYLD[Aib]RRAQDFVQWLMNT-NH2
B16: Peptide K backbone, Dab(Ac) at position 3 (SEQ ID NO: 601) (peptide)
peptide: HS[Dab](Ac)GTFTSDYSKYLD[Aib]RRAADFVAWLMDE
B17: Peptide J backbone, Orn(Ac) at position 3 (SEQ ID NO: 599) (peptide)
peptide: HS[Orn(Ac)]GTFTSDYSKYLDTRRAAEFVAWL[Nle]DE
B18: Peptide K backbone, Q at position 3 (SEQ ID NO: 600) (peptide)
peptide: HSQGTFTSDYSKYLD[Aib]RRAADFVAWLMDE
B19: DMIA1, E16/K20 lactam, Lys10 γE-C16 (SEQ ID NO: 651) (peptide)
peptide: [DMIA]SQGTFTSDK([γGlu-Palmitoyl])SKYLDERRAKDFVQWLMNT
modifications: lactam 16-20; reading uncertain
B20: Chi-2, AIB2, Lys10 γE-γE-C16 (SEQ ID NO: 646) (peptide)
peptide: H[Aib]QGTFTSDK([γGlu-γGlu-Palmitoyl])SKYLDEQAAKEFIAWLMNT-NH2
modifications: N-terminus assumed
SMILES: CCCCCCCCCCCCCCCC(=O)N[C@@H](CCC(=O)N[C@@H](CCC(=O)NCCCC[C@H](NC(=O)[C@H](CC(=O)O)NC(=O)[C@H](CO)NC(=O)[C@@H](NC(=O)[C@H](Cc1ccccc1)NC(=O)[C@@H](NC(=O)CNC(=O)[C@H](CCC(N)=O)NC(=O)C(C)(C)NC(=O)[C@@H](N)Cc1c[nH]cn1)[C@@H](C)O)[C@@H](C)O)C(=O)N[C@@H](CO)C(=O)N[C@@H](CCCCN)C(=O)N[C@@H](Cc1ccc(O)cc1)C(=O)N[C@@H](CC(C)C)C(=O)N[C@@H](CC(=O)O)C(=O)N[C@@H](CCC(=O)O)C(=O)N[C@@H](CCC(N)=O)C(=O)N[C@@H](C)C(=O)N[C@@H](C)C(=O)N[C@@H](CCCCN)C(=O)N[C@@H](CCC(=O)O)C(=O)N[C@@H](Cc1ccccc1)C(=O)N[C@H](C(=O)N[C@@H](C)C(=O)N[C@@H](Cc1c[nH]c2ccccc12)C(=O)N[C@@H](CC(C)C)C(=O)N[C@@H](CCSC)C(=O)N[C@@H](CC(N)=O)C(=O)N[C@H](C(N)=O)[C@@H](C)O)[C@@H](C)CC)C(=O)O)C(=O)O
B21: Chi-2, AIB2, I7, Lys10 γE-C16 (SEQ ID NO: 649) (peptide)
peptide: H[Aib]QGTFISDK([γGlu-Palmitoyl])SKYLDEQAAKEFIAWLMNT-NH2
modifications: N-terminus assumed
SMILES: CCCCCCCCCCCCCCCC(=O)N[C@@H](CCC(=O)NCCCC[C@H](NC(=O)[C@H](CC(=O)O)NC(=O)[C@H](CO)NC(=O)[C@@H](NC(=O)[C@H](Cc1ccccc1)NC(=O)[C@@H](NC(=O)CNC(=O)[C@H](CCC(N)=O)NC(=O)C(C)(C)NC(=O)[C@@H](N)Cc1c[nH]cn1)[C@@H](C)O)[C@@H](C)CC)C(=O)N[C@@H](CO)C(=O)N[C@@H](CCCCN)C(=O)N[C@@H](Cc1ccc(O)cc1)C(=O)N[C@@H](CC(C)C)C(=O)N[C@@H](CC(=O)O)C(=O)N[C@@H](CCC(=O)O)C(=O)N[C@@H](CCC(N)=O)C(=O)N[C@@H](C)C(=O)N[C@@H](C)C(=O)N[C@@H](CCCCN)C(=O)N[C@@H](CCC(=O)O)C(=O)N[C@@H](Cc1ccccc1)C(=O)N[C@H](C(=O)N[C@@H](C)C(=O)N[C@@H](Cc1c[nH]c2ccccc12)C(=O)N[C@@H](CC(C)C)C(=O)N[C@@H](CCSC)C(=O)N[C@@H](CC(N)=O)C(=O)N[C@H](C(N)=O)[C@@H](C)O)[C@@H](C)CC)C(=O)O
B22: DMIA1, E16/K20 lactam, Lys10 γE-γE-C16 (SEQ ID NO: 652) (peptide)
peptide: [DMIA]SQGTFTSDK([γGlu-γGlu-Palmitoyl])SKYLDERRAKDFVQWLMNT
modifications: lactam 16-20; reading uncertain
B23: mt-351 (peptide)
peptide: H[Aib]QGTFTSDYSKYLD[Aib]QAAKEFIC(PEG 40 kDa)WLMNGGPSSGAPPPSK(Myristoyl)-NH2

Values joined by “and” are separate entries in the source; they are usually repeats but may differ in a detail not shown here. Equal values may be shown once. Starred links: 1 amine or outer side, 2 acyl side, 3 side chain; linkers in the order of their positions; H or OH if unused. Positions of bridges follow the written chain, without caps; N, C: chain ends. Non-standard residues stand in square brackets, D forms with d. Groups on a side chain read outwards from the residue. No end group written: not given here. *: point of attachment. Orn(Ac) = acetylornithine, CC(=O)NCCC[C@H](N[*:1])C(=O)[*:2]; γGlu = O=C(O)[C@H](CCC(=O)[*:2])N[*:1]; Palmitoyl = CCCCCCCCCCCCCCCC(=O)*; Myristoyl = CCCCCCCCCCCCCC(=O)*; Nle = CCCC[C@H](N)C(=O)O; DMIA = not defined here; Dab = NCC[C@H](N)C(=O)O; Aib = CC(C)(N)C(=O)O; Ahx = NCCCCCC(=O)O; βAla = NCCC(=O)O

As usually defined, the EC50 is the concentration at which the effect is half-maximal. A high value points to weaker potency.

T2 sequence (P47871 26-477 limits assumed): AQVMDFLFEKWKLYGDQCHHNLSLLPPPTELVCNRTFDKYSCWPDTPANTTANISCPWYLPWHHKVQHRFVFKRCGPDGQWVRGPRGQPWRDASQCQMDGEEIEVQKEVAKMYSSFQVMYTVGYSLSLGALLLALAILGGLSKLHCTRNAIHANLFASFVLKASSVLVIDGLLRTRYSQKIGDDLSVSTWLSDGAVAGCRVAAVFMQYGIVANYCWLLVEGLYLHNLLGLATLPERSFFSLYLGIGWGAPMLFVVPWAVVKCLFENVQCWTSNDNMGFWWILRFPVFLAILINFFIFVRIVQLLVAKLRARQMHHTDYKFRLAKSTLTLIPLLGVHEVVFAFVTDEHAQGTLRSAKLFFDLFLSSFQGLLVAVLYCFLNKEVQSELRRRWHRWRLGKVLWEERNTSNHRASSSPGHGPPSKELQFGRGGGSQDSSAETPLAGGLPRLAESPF

The first experiment has as its target T1, GLP-1 receptor (UniProt P43220 24-463, limits assumed). The experiment is described as follows: cell-based or functional assay.
Turning to B1, it took 0.31 nM to reach a half-maximal effect (EC50) and the “Relative Potency (%)” value was found to be 8%. The like results for B2 were, in that order, 0.025 nM and 100%. B3: a half-maximal response (EC50) required 0.02 nM.

Another experiment concerns the target T2, glucagon receptor (UniProt P47871 26-477, limits assumed). The experiment is described as follows: cell-based or functional assay.
In turn, B4 returned an EC50 of 0.017 nM.

As to B5, the EC50 amounted to 0.024 nM. In the case of B6, the EC50 was 0.102 nM. Consider B7, for which the response was half-maximal at 0.319 nM (EC50). The same measure, in the same setting: under B8 stands 0.597 nM; under B9, 0.01 nM; under B10, 21.9 nM. Same read-out and setting: under B11 stands 0.653 nM; under B12, 0.108 nM.

The target of the next experiment is T1, GLP-1 receptor. The experiment is described as follows: cell-based or functional assay. This is another data set of the same source.
Molecule B4 gave an EC50 of 0.009 nM. Regarding B13, the EC50 came out at 0.043 nM. In turn, B5 yielded an EC50 of 0.108 nM. The same measure, in the same setting: as for B14, the figure is 0.006 nM. Take B7: the EC50 was found to be 0.103 nM. On the same count and under the same terms, as for B8, the figure is 0.271 nM. Same read-out and setting: under B9 stands 0.005 nM. Regarding B15, a half-maximal response (EC50) required 0.004 nM.

B10: the EC50 was determined as 1.46 nM. As to B11, the midpoint of the response, the EC50, lay at 0.475 nM.

In the next experiment the target is T2, glucagon receptor. The experiment is described as follows: cell-based or functional assay. This is another data set of the same source.
In the case of B16, the “% activity” value was determined as 86% and a half-maximal response (EC50) required 0.07 nM.

Take B17: the “% activity” value turned out to be 7% and the 50% effective concentration (EC50) amounted to 0.92 nM. For the molecule B18, the “% activity” value is 15%.

For a further experiment, the target named is T1, GLP-1 receptor. Kind of experiment: cell-based or functional assay. This is another data set of the same source.
On to B19, for which it took 0.006 nM to reach a half-maximal effect (EC50). B20 showed an EC50 of 0.0018 nM.

In the case of B21, the EC50 was 0.024 nM and 0.044 nM. As to B22, it took 0.004 nM to reach a half-maximal effect (EC50).

A further experiment has as its target T2, glucagon receptor. The experiment is described as follows: cell-based or functional assay. The source holds these as a separate data set.
On to B23, for which the “% Relative activity” value is 10.7% and a half-maximal effect (EC50) was put at 0.196 nM.
